Assays:
huTIM-3/his (human) [1] = biological target: huTIM-3/his (human) (UniProt Q8TDQ0); assay: Biacore, hTIM-3/his captured by anti-His antibody on a CM5 chip; first injection
huTIM-3/his (human) [2] = biological target: huTIM-3/his (human) (UniProt Q8TDQ0); assay: Biacore sequential injection; value belongs to the 2nd antibody huIgG1; competitor (1st antibody) huIgG1
huTIM-3/his (human) [3] = biological target: huTIM-3/his (human) (UniProt Q8TDQ0); assay: Biacore sequential injection; value belongs to the 2nd antibody huIgG1; competitor (1st antibody) ABTIM3-hum03
huTIM-3/his (human) [4] = biological target: huTIM-3/his (human) (UniProt Q8TDQ0); assay: Biacore sequential injection; value belongs to the 2nd antibody huIgG1; competitor (1st antibody) ABTIM3-hum11
huTIM-3/his (human) [5] = biological target: huTIM-3/his (human) (UniProt Q8TDQ0); assay: Biacore sequential injection; value belongs to the 2nd antibody huIgG1; competitor (1st antibody) ABTIM3-hum21

With huIgG1 (antibody) the change in RU (1st antibody injection) (huTIM-3/his (human) [1]) was 0.27 RU, the change in RU (2nd antibody injection) (huTIM-3/his (human) [2]) was 3.6 RU and the change in RU (2nd antibody injection) (huTIM-3/his (human) [3]) was 4.5 RU. It also gave a change in RU (2nd antibody injection) (huTIM-3/his (human) [4]) of 3.8 RU and a change in RU (2nd antibody injection) (huTIM-3/his (human) [5]) of 4.5 RU.
